Experimental data reported in paper PMC7615931 (Science (New York, N.Y.), 2024).

How the values were obtained:
cryo-EM structure = molecular target: the molecule itself; test: cryo-EM structure
negative-staining EM = molecular target: the molecule itself; test: negative-staining EM

B1: β-arrestin 2 (βarr2), wild-type, full-length (natural protein, UniProt P32120 1-420, looked up)
chain: MGEKPGTRVFKKSSPNCKLTVYLGKRDFVDHLDKVDPVDGVVLVDPDYLKDRKVFVTLTCAFRYGREDLDVLGLSFRKDLFIANYQAFPPTPNPPRPPTRLQERLLRKLGQHAHPFFFTIPQNLPCSVTLQPGPEDTGKACGVDFEIRAFCAKSLEEKSHKRNSVRLVIRKVQFAPEKPGPQPSAETTRHFLMSDRSLHLEASLDKELYYHGEPLNVNVHVTNNSTKTVKKIKVSVRQYADICLFSTAQYKCPVAQVEQDDQVSPSSTFCKVYTITPLLSNNREKRGLALDGKLKHEDTNLASSTIVKEGANKEVLGILVSYRVKVKLVVSRGGDVSVELPFVLMHPKPHDHIALPRPQSAATHPPTLLPSAVPETDAPVDTNLIEFETNYATDDDIVFEDFARLRLKGLKDEDYDDQFC
- stoichiometry N (cryo-EM structure): 2
- stoichiometry N (negative-staining EM): 3
